The results in this text go back to patent US20250043285A1 (UNM RAINFOREST INNOVATIONS, published 2025).

For one test, the target named is GST-LC3B (UniProt Q9GZQ8 1-125). Nature of the test: GST pulldown of in vitro translated [35S] Myc-VPS37A. An excerpt: Myc-VPS37A with GST or GST tagged LC3A, LC3B, LC3C, GABARAP, GABARAP-L1 and GABARAP-L2. 2% of input was loaded. 1B, AlphaFold predicted complexes between VPS37^{AdeltaCEV} and GABARAP. 1C, Schematic representation of HaloTag (HT)-LC3B MIL/MPL assay adapted for quantitative high content microscopy (HCM). MIL⁺ profiles, HT-LC3B accessible to membrane impermeant ligand; MPL⁺ profiles, HT-LC3B remaining available (not saturated with MIL) to membrane permeant ligand. 1D, MIL/MPL assay in HeLa^WT and HeLa^HexaKO expressing HT-LC3B, starved in EBSS for 90 min±100 nM BafA1. Cells were sequentially incubated with HT ligands MIL and MPL, and HCM quantification carried out; (d-i) MIL-accessible membrane-bound HT-LC3B; (d-ii) MPL-accessible membrane-bound HT-LC3B (remaining available to MPL after MIL saturation). (d-iii) MIL/MPL puncta ratio. […]

The target in test [1] is T1, Myc-UEV^VPS37A (UEV domain of VPS37A only) (UniProt Q8NEZ2 23-217, [35S]-methionine radiolabel).
T1 construct: domain: UEV; the legend is followed; The limits 23-217 are stated for the AlphaFold input, not expressly for the clone; also called Myc-UEV^VP37A; not shown: Myc tag
T1 sequence (looked up): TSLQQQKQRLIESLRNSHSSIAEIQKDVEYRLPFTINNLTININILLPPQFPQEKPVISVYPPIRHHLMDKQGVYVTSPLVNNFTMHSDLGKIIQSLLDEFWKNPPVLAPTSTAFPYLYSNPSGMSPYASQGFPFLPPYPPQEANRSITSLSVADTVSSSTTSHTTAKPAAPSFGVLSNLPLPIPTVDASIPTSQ
Nature of the test: GST pulldown of in vitro translated Myc-tagged protein (FIG. 7C). The text has this:
(§1) 7A, Co-IP analysis of interactions between FLAG-VPS37A and GFP-LC3A and GFP-GABARAP (GABA) in HEK293T cells. 5% of input was loaded. 7B, Schematic of VPS37A full length and deletion constructs: (i) VPS37A^FL, full length, (ii) VPS37A^deltaUEV deletion of UEV (cyan), (iii) UEV^VPS37A, UEV domain only (cyan), (iv) VPS37A^{deltaN(1-90)} deletion of residues 1-90, (v) VPS37A^{deltaN(1-20)}, deletion of residues 1-20 (red), (vi) VPS37A^{Nter-EGFP}, N-ter 1-22 chimera with GFP. 7C, GST-Pull down of Myc-UEV^VP37A and Myc-VPS37AdeltaCEV with GST or GST-LC3A, GST-LC3C and GST-GABARAP, 2% of Input was loaded. 7D, Co-IP between GFP-LC3A with FLAG-VPS37A^FL, UEV^VPS37A and VPS37A^deltaCEV. 7E, VPS37AdeltaCEV AlphaFold predicted structure; sequence, 1-22 residues, N-terminus of VPS37A (red, residues predicted to contact mATG8s. 7F, Representation of AlphaFold predicted complexes (rank 1; VPS37A^deltaCEV and GABARAP). 7G,7H Co-IP analyses in HEK293T cells expressing FLAG-VPS37A and GFP-LC3A (in 7H) or GFP-GABARAP (in 7G).
GST pull-down Assay. Recombinant GST and GST-fusion proteins were produced in Escherichia coli SoluBL21 (Genlantis, #C700200) by inducing expression in overnight cultures with 50-75 μg/mL isopropyl β-D-1-thiogalactopyranoside (IPTG). Expressed proteins were purified by immobilization on Glutathione Sepharose 4 Fast Flow beads (GE Healthcare, #17-5132-01). […]

The target in test [2] is T2, FLAG-VPS37A (full length) (UniProt Q8NEZ2 1-397).
T2 construct: Expressed in HEK293T cells for Co-IP; also called FLAG-VPS37A^FL; pDest-FLAG-VPS37A^Full; not shown: FLAG tag
T2 sequence (looked up): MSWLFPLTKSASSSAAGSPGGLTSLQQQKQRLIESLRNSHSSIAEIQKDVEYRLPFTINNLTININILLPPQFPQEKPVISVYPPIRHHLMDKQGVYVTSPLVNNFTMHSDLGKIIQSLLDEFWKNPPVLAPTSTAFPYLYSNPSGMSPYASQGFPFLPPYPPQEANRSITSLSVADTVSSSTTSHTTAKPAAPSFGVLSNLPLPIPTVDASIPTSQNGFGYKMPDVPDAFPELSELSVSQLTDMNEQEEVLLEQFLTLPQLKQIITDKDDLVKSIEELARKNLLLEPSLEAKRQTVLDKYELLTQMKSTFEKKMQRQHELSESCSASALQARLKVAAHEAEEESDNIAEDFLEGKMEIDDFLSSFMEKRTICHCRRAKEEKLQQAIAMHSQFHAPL
Nature of the test: Co-IP of FLAG-VPS37A and GFP-GABARAP in HEK293T cells (FIG. 7A).
Source text: as §1
Immunoblotting and co-immunoprecipitation assays. Immunoblotting and co-immunoprecipitation (Co-IP) were performed as described previously⁴. For Co-IP, 10 cm dish cells were transfected with 12 μg of plasmids, wherever stated, and lysed in NP-40 buffer containing protease inhibitor cocktail (Roche, cat #11697498001) and PMSF (Sigma, cat #93482). […]

B1: Myc-VPS37A (in vitro translated, [35S]-radiolabeled, full length) (other)
chain: MSWLFPLTKSASSSAAGSPGGLTSLQQQKQRLIESLRNSHSSIAEIQKDVEYRLPFTINNLTININILLPPQFPQEKPVISVYPPIRHHLMDKQGVYVTSPLVNNFTMHSDLGKIIQSLLDEFWKNPPVLAPTSTAFPYLYSNPSGMSPYASQGFPFLPPYPPQEANRSITSLSVADTVSSSTTSHTTAKPAAPSFGVLSNLPLPIPTVDASIPTSQNGFGYKMPDVPDAFPELSELSVSQLTDMNEQEEVLLEQFLTLPQLKQIITDKDDLVKSIEELARKNLLLEPSLEAKRQTVLDKYELLTQMKSTFEKKMQRQHELSESCSASALQARLKVAAHEAEEESDNIAEDFLEGKMEIDDFLSSFMEKRTICHCRRAKEEKLQQAIAMHSQFHAPL
modifications: [35S]-methionine radiolabel
notes: In vitro translated in reticulocyte lysate; also called VPS37A^FL; not shown: Myc tag
As to B1, in the test with GST-LC3B, the binding result was “no binding”.

B2: GST-GABARAP (other, UniProt O95166 1-117, looked up)
chain: MKFVYKEEHPFEKRRSEGEKIRKKYPDRVPVIVEKAPKARIGDLDKKKYLVPSDLTVGQFYFLIRKRIHLRAEDALFFFVNNVIPPTSATMGQLYQEHHEEDFFLYIAYSDESVYGL
notes: Recombinant, made in E. coli, held on glutathione Sepharose beads; not shown: GST tag
Consider B2, for which the binding result in test [1] was “no binding”.

B3: GFP-GABARAP (other, UniProt O95166 1-116, looked up)
chain: MKFVYKEEHPFEKRRSEGEKIRKKYPDRVPVIVEKAPKARIGDLDKKKYLVPSDLTVGQFYFLIRKRIHLRAEDALFFFVNNVIPPTSATMGQLYQEHHEEDFFLYIAYSDESVYG
notes: Expressed in HEK293T cells for Co-IP; also called GFP-GABARAP (GABA); pDest-GFP-GABARAP; not shown: GFP
Regarding B3, in test [2], the binding result is given as “binds”.

B4: GST-LC3C (other, UniProt Q9BXW4 1-147, looked up)
chain: MPPPQKIPSVRPFKQRKSLAIRQEEVAGIRAKFPNKIPVVVERYPRETFLPPLDKTKFLVPQELTMTQFLSIIRSRMVLRATEAFYLLVNNKSLVSMSATMAEIYRDYKDEDGFVYMTYASQETFGCLESAAPRDGSSLEDRPCNPL
notes: Recombinant, made in E. coli, held on glutathione Sepharose beads; also called GTS-LC3C; not shown: GST tag
Consider B4, for which, in test [1], the binding result was “no binding”.
